Assay results as given in patent US20260234121A1, “DERIVATIVES, IMMUNOGENS, AND ANTIBODIES AND USE OF THE SAME IN DETECTION OF ECSTASY-CLASS COMPOUNDS” (Siemens Healthcare Diagnostics Inc., priority 2023, published 2026).

B1: 178K 1F4 mAb: mouse monoclonal antibody raised against E1-KLH (56); IgG2b, κ; heavy chain SEQ ID NO 85, light chain SEQ ID NO 109 (antibody)
heavy: MNFGLSLIFLALILKGVQCEVQLVESGGDLVRPGGSLKLSCAASGFIFTNYVMSWVRQTPDKRLEWVATINSVGRYTYYTDSVKGRLTISRNNAKNTLYLQMNSLKSEDTAIYYCAGGNNLDFWGQGTTLTVSSAKTTPPSVYPLAPGCGDTTGSSVTLGCLVKGYFPESVTVTWNSGSLSSSVHTFPALLQSGLYTMSSSVTVPSSTWLSQTVTCSVAHPASSTTVDKKLEPSGPISTIKPCPPCKECHKCPAPNLEGGPSVFIFPPNIKDVLMISLTPKVTCVVVDVSEDDPDVQISWFVNNVEVHTAQTQTHREDYNSTIRVVSALPIQHQDWMSGKEFKCKVNNKDLPSPIERTISKIKGLVRAPQVYILPPPAEQLSRKDVSLTCLVVGFNPGDISVEWTSNGHTEENYKDTAPILDSDGSYFIYSKLNMKTSKWEKTDSFSCNVRHEGLKNNYLKKTISRSPGK
light: MRFSAQLLGLLVLWIPGSTADIVMTQAAFSNPVTLGTSASISCRSSKSLLHSNGITYLYWYLQKPGQSPQLLIYQMSNLASGVPDRFSSSGSGTDFTLRISRVEAEDVGVYYCGQDLELPYSFGGGTKLEIKRADAAPTVSIFPPSSEQLTSGGASVVCFLNNFYPKDINVKWKIDGSERQNGVLNSWTDQDSKDSTYSMSSTLTLTKDEYERHNSYTCEATHKTSTSPIVKSFNRNEC
B2: 178K 1E11 mAb: mouse monoclonal antibody raised against E1-KLH (56); IgG2b, κ; heavy chain SEQ ID NO 183, light chain SEQ ID NO 185 (antibody)
heavy: MNFGLSLIFLALILKGVQCEVQLVESGGDFVKPGGSLKLSCAASGFTFSNYVMSWVRQTPDKRLEWVATINSGGRYTYYPDSVKGRFTISRDNAKNTLYLQMNSLKSDDTAIYYCSGGNYLDYWGQGTTLTVSSAKTTPPSVYPLAPGCGDTTGSSVTLGCLVKGYFPESVTVTWNSGSLSSSVHTFPALLQSGLYTMSSSVTVPSSTWLSQTVTCSVAHPASSTTVDKKLEPSGPISTIKPCPPCKECHKCPAPNLEGGPSVFIFPPNIKDVLMISLTPKVTCVVVDVSEDDPDVQISWFVNNVEVHTAQTQTHREDYNSTIRVVSALPIQHQDWMSGKEFKCKVNNKDLPSPIERTISKIKGLVRAPQVYILPPPAEQLSRKDVSLTCLVVGFNPGDISVEWTSNGHTEENYKDTAPILDSDGSYFIYSKLNMKTSKWEKTDSFSCNVRHEGLKNNYLKKTISRSPGK
light: MRFSAQLLGLLVLWIPGSTADIVMTQAAFSNPVTLGTSASISCRSSKSLLQRNGITYLHWYLQKPGQSPQLLIYRMSNLASGVPERFSSSGSGTDFTLRISRVEAEDVGVYYCGQDLELPYTFGGGTKLEIKRADAAPTVSIFPPSSEQLTSGGASVVCFLNNFYPKDINVKWKIDGSERQNGVLNSWTDQDSKDSTYSMSSTLTLTKDEYERHNSYTCEATHKTSTSPIVKSFNRNEC
B3: 178F 4C12 mAb: mouse monoclonal antibody raised against E1-KLH (56); IgG1, κ; heavy chain SEQ ID NO 80, light chain SEQ ID NO 104 (antibody)
heavy: MNFGLSLIFLALILKGVQCEVQLVESGGDLVKPGGSLKLSCAASGFTFSRFVMSWVRQTPDKRLEWVATISSGGIHTYYLDSVKGRVTIFRDNAKNTLYLQMSSLESEDTAMYYCAAGNALDYWGQGTSVTVSSAKTTAPSVYPLAPVCGGTTGSSVTLGCLVKGYFPEPVTLTWNSGSLSSGVHTFPALLQSGLYTLSSSVTVTSNTWPSQTITCNVAHPASSTKVDKKIEPRVPITQNPCPPLKECPPCAAPDLLGGPSVFIFPPKIKDVLMISLSPMVTCVVVDVSEDDPDVQISWFVNNVEVHTAQTQTHREDYNSTLRVVSALPIQHQDWMSGKEFKCKVNNRALPSPIEKTISKPRGPVRAPQVYVLPPPAEEMTKKEFSLTCMITGFLPAEIAVDWTSNGRTEQNYKNTATVLDSDGSYFMYSKLRVQKSTWERGSLFACSVVHEGLHNHLTTKTISRSLGK
light: MRFSAQLLGLLVLWIPGSTADIVMTQAAFSNPVTLGTSGSVSCRSSKSLLHSNGITYLYWYLQKPGQSPQLLIYQMSNLASGVPDRFSSTGSGTDFTLRISRVEAEDVGVYYCGQDLELPYSFGSGTKLEIKRADAAPTVSIFPPSSEQLTSGGASVVCFLNNFYPKDINVKWKIDGSERQNGVLNSWTDQDSKDSTYSMSSTLTLTKDEYERHNSYTCEATHKTSTSPIVKSFNRNEC
B4: 178H 2A7 mAb: mouse monoclonal antibody raised against E1-KLH (56); IgG1, κ; heavy chain SEQ ID NO 82, light chain SEQ ID NO 106 (antibody)
heavy: MNFGLSLISLALILKGVQCEVHLVESGGDLVKPGGSLKLSCAASGFTFSSYVMSWVRQTPDKRLEWIATISYGGGHYTYYPDSVKGRFTISRDNAKNTLYLQMNSLKSDDTAMYYCSSGNALNYWGQGTSVTVSSAKTTPPSVYPLAPGSAAQTNSMVTLGCLVKGYFPEPVTVTWNSGSLSSGVHTFPAVLQSDLYTLSSSVTVPSSTWPSQTVTCNVAHPASSTKVDKKIVPRDCGCKPCICTVPEVSSVFIFPPKPKDVLTITLTPKVTCVVVDISKDDPEVQFSWFVDDVEVHTAQTKPREEQINSTFRSVSELPIMHQDWLNGKEFKCRVNSAAFPAPIEKTISKTKGRPKAPQVYTIPPPKEQMAKDKVSLTCMITNFFPEDITVEWQWNGQPAENYKNTQPIMDTDGSYFVYSKLNVQKSNWEAGNTFTCSVLHEGLHNHHTEKSLSHSPGK
light: MRFSAQLLGLLVLWIPGSTADIVMTQAAFSNPVTLGTSASISCRSSKSLLHYTGITYLYWYLQKPGQSPQLLIYQMSNLASGVPDRFSSSGSGTDFTLRISRVEAEDVGVYYCGQDLELPYSFGSGTKLEIKRADAAPTVSIFPPSSEQLTSGGASVVCFLNNFYPKDINVKWKIDGSERQNGVLNSWTDQDSKDSTYSMSSTLTLTKDEYERHNSYTCEATHKTSTSPIVKSFNRNEC

Tests used:
[1] = Competitive ELISA screening of hybridoma supernatants on E1-OVA (55), inhibitor MDMA; type: binding; settings: for E1-OVA (55) Binding, OD650 nm +MDMA: hybridoma supernatant in the presence of 10 μg/mL MDMA; for % Inhibition by 10 μg/mL of MDMA: inhibition of mAb/E1-OVA (55) binding
Protocol: (§1) Competitive ELISA was used to assess the presence of anti-Ecstasy-class antibodies in animal sera, hybridoma supernatants, and monoclonal antibody (mAb) samples as well as to estimate the level of antibody cross reactivity to amphetamine (Amph) and methamphetamine (mAmph). Antisera and antibody samples were used at the dilution giving a response of about OD=1 at 650 nm (OD650 nm) in an indirect ELISA. Hybridoma supernatants were diluted 1:2 in PBS. (±)-MDMA, (±)-MDA, (±)-amphetamine, and (±)-methamphetamine were used as inhibitors (Cerilliant Corporation, Round Rock, TX). Microtiter ELISA plates were coated and blocked as described above for indirect ELISA. The inhibitors were serially diluted in PBS. 25 μL of the diluted inhibitor was mixed with 25 μL of fixed appropriate antiserum or antibody sample dilution. The mixture was incubated over the E1-OVA (55) solid phase for 1 h. The plates were washed as described above and the bound antibodies were detected with anti-rabbit or anti-mouse IgG HRP-conjugates and TMB substrate as described above.
(§2) The supernatants were screened in a competitive ELISA for the presence of anti-ecstasy compound monoclonal antibodies (mAbs) as follows. 25 μL of the hybridoma supernatant was mixed with equal volume of PBS alone or containing 20 μg/mL inhibitor (MDA or MDMA) were incubated for 1 h in the wells of E1-OVA (55) coated ELISA plates. The plates were washed and the presence of bound mAbs were detected using goat anti-mouse IgG (Fc)-HRP conjugate and TMB substrate as described above. The level of inhibition of mAb/E1-OVA (55) binding in the presence of the inhibitor was estimated using a Percent (%) Inhibition calculated by the below formula:
(§3) [formula] • where “OD650 nm w/o Inhibitor” is the binding response of the antibody sample diluted in PBS alone (with no inhibitor), and the “OD650 nm with Inhibitor” is the binding response of the same antibody sample in the presence of 10 μg/mL of inhibitor (i.e., MDA or MDMA).

[2] = Competitive ELISA of purified antibodies on E1-OVA (55), amphetamine and methamphetamine cross reactivity; type: binding
Protocol: as §1
The anti-ecstasy class mAbs were purified from clarified and filtered hybridoma culture supernatants on a recombinant Protein A Sepharose Fast Flow (GE Life Sciences, Boston USA), dialyzed against PBS containing 0.02% sodium azide and stored at 4° C. The purified mAbs were tested for MDA and MDMA reactivity as well as amphetamine (Amph) and methamphetamine (mAmph) cross reactivity in a competitive assay.

[3] = Prototype EMIT ecstasy assay, cross-reactivity with methamphetamine; type: biochemical; settings: conjugate Compound 58; negative urine pool
[4] = tested on: E1-OVA (55); assay: ELISA binding of hybridoma supernatant to E1-OVA (55) coated plates, without inhibitor; settings: hybridoma supernatant mixed with PBS alone
Protocol: All ELISA steps were performed at rt. Wells of a Nunc Maxi-Sorp™ flat-bottom ELISA plates (ThermoFisher Scientific, Waltham, MA) were coated with 50 μL E1-OVA (55), E2-OVA (65), and E3-OVA (72) at a concentration of 1 μg/mL in PBS for 1 h. The plates were flicked dried and remaining binding sites were blocked with 200 μL per well of blocking solution (0.5% casein, 0.05% (v/v) Tween 20 in PBS) for one hour. Plates were washed six times with MilliQ water containing 0.05% (v/v) Tween 20 on Biotek 405 LS plate washer equipped with microplate Biostacker 3 (Biotek, Winooski, VT). 50 μL of serially diluted antibody samples (serial dilutions of serum, hybridoma supernatant, or monoclonal antibodies in PBS) were added to each well and incubated for one hour. Unbound antibodies were removed by washing as described above, and 50 μL of secondary goat anti-rabbit IgG HRP or goat anti-mouse IgG (Fc)-HRP conjugate (ThermoFisher Scientific, USA), diluted 1:3,000 in the blocking solution was added to each well for detection bound rabbit or mouse antibody, respectively. Plates were incubated for one hour, washed and 100 μL of TMB substrate (Moss, Pasadena, MD) was added for 15 min to determine bound peroxidase. Optical density (OD) of the samples at 650 nm was measured using an ELISA plate reader (Molecular Devices LLC., San Jose, CA). The titer of each serum sample was designated as the maximum dilution that yielded at least twice the absorbance of the same dilution of the nonimmune control serum.
as §2
[formula] • where “OD650 nm w/o Inhibitor” is the binding response of the antibody sample diluted in PBS alone (with no inhibitor), and the “OD650 nm with Inhibitor” is the binding response of the same antibody sample in the presence of 10 μg/mL of inhibitor (i.e., MDA or MDMA). […]

[5] = Prototype EMIT ecstasy assay, cross-reactivity with amphetamine; type: biochemical; settings: conjugate Compound 58; negative urine pool
[6] = Competitive ELISA screening of hybridoma supernatants on E1-OVA (55), inhibitor MDA; type: binding; settings: for E1-OVA (55) Binding, OD650 nm +MDA: hybridoma supernatant in the presence of 10 μg/mL MDA; for % Inhibition by 10 μg/mL of MDA: inhibition of mAb/E1-OVA (55) binding
Protocol: as §1, §2, §3

Molecule | E1-OVA (55) Binding, OD650 nm +MDMA [1] | % Inhibition by 10 μg/mL of MDMA [1] | cross reactivity in the presence of 1,000 ng/ml of Amph or mAmph [2] | Concentrations (μg/mL) of Structurally Related Compounds Equivalent to 500 ng/mL MDMA Cutoffs, (+/−) mAmph [3] | E1-OVA (55) Binding, OD650 nm w/o inhib [4] | Concentrations (μg/mL) of Structurally Related Compounds Equivalent to 500 ng/mL MDMA Cutoffs, (+/−) Amph [5] | E1-OVA (55) Binding, OD650 nm +MDA [6] | % Inhibition by 10 μg/mL of MDA [6]
B1 | 0.359 OD650 nm | 88% | do not show any significant cross reactivity | 30 µg/mL | 3.012 OD650 nm | 30 µg/mL | 0.254 OD650 nm | 93%
B2 | 0.301 OD650 nm | 91% | do not show any significant cross reactivity |  | 3.390 OD650 nm |  | 0.316 OD650 nm | 91%
B3 |  |  |  | 40 to 50 µg/mL | 2.836 OD650 nm | 40 to 45 µg/mL |  | 
B4 |  |  |  | 30 to 40 µg/mL | 2.900 OD650 nm | 40 to 45 µg/mL |  | 
